According to patent US20150017657A1, “ASSAY AND METHOD FOR IDENTIFYING COMPOUNDS THAT INHIBIT EXCITOTOXIC SIGNALS” (THE UNIVERSITY OF SYDNEY, priority 2011, published 2015):
No end group written: not given here.

Biological target: T1, Tau protein bound to Fyn protein (N-GFP-Fyn / C-GFP-Tau) (Homo sapiens, UniProt P06241)
T1 construct: A nucleic acid encoding amino acids 83-145 of human Fyn was cloned into the N-GFP-pLVX vector; N-GFP (GFP aa 1-158) with GGSG linker and XbaI-encoded SR; expressed in transfected cells; host or cells: COS-7 cells, lentiviral pLVX constructs, stably expressed
Assay: split-GFP reassembly assay of Tau/Fyn binding in transfected COS-7 cells
Format: cell-based
Conditions: 200 nM peptide, 1 hour at 37 degree Celsius; COS-7 cells expressing N-GFP-Fyn and N-terminal C-GFP-Tau; plate reader or fluorescence microscope (FIG. 5)
Text: Lentiviruses containing either combination of constructs, i.e. N-terminal C-GFP fused to Tau and N-GFP fused to Fyn, or C-terminal C-GFP fused to Tau and N-GFP fused to Fyn, were then generated using standard protocols (e.g. Krupka et al., Plasmid, 2010, 63(3):155-60) and stably expressed in COS-7 cells.
However, transfection of constructs encoding N-terminal C-GFP fused to Tau and N-GFP fused to Fyn did result in green fluorescing cells (FIG. 5).
Cells generated by the methods described in Example 1 were grown till confluent in 96-well plates and then the fluorescence was measured in a 96-well plate reader (Omega, BMG) or by via fluorescence microscope. The cells were then incubated with 200 nM of the Tat-7PXXP peptide for 1 hour at 37 degree Celsius. The fluorescence was again measured in a 96-well plate reader (Omega, BMG) or via a fluorescence microscope.

T1 sequence (P06241 83-145): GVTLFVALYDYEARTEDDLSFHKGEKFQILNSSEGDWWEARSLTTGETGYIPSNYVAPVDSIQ

With YGRKKRRQRRRTPPKSPSS [Tat-7PXXP] as the sequence, how does the “fluorescence of the transfected cells” value read?
Its value is “negligible”.
